According to patent publication US20080125354A1 (FLORIDA ATLANTIC UNIVERSITY, published 2008):
One block for each binder: values may come before it.

Experiments:
[1] = biological target: MMP-8 (neutrophil collagenase, collagenase 2) (UniProt P22894 21-467, limits assumed); assay: cell-based or functional assay
MMP-13 (collagenase 3) = MMP-13 (collagenase 3) (UniProt P45452 20-471, limits assumed); assay: cell-based or functional assay

Sequence of MMP-8 (neutrophil collagenase, collagenase 2) (P22894 21-467 limits assumed): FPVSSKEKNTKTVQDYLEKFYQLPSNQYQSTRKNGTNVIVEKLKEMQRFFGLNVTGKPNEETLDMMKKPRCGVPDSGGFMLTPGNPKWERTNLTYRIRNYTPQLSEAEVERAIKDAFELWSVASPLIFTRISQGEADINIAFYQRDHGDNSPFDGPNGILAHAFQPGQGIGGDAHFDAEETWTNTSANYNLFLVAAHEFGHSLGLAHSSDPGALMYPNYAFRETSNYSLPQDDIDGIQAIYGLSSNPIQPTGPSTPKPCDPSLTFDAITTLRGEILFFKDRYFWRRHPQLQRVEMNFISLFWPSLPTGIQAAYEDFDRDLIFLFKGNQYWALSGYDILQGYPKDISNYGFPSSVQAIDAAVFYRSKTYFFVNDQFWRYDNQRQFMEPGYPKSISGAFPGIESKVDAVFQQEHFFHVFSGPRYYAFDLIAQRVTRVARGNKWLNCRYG

IC50, inhibition of enzyme activity (fluorogenic substrate) [1]: ~50 µM | IC50, inhibition of enzyme activity (fluorogenic substrate) (MMP-13 (collagenase 3)): ~10 µM
B1: phosphinate-containing triple-helical peptide-amphiphile f3, C6-(Gly-Pro-Hyp)5-Gly-Pro-Pro-[Gly~Val]-Val-Gly-Glu-Gln-(Gly-Pro-Hyp)5-NH2 (peptide)
peptide: not shown
modifications: N-terminal hexanoic acid (C6); Hyp (4-hydroxyproline) at 3, 6, 9, 12, 15, 27, 30, 33, 36, 39 (written P in letters); Gly19-Val20 peptide bond replaced by phosphinate psi{PO2H-CH2}; hypothesised phosphino Gly-(D)Val analog; C-terminal amide

IC50, inhibition of enzyme activity (fluorogenic substrate) [1]: ~50 µM | IC50, inhibition of enzyme activity (fluorogenic substrate) (MMP-13 (collagenase 3)): ~10 µM
B2: phosphinate-containing triple-helical peptide-amphiphile f4, C6-(Gly-Pro-Hyp)5-Gly-Pro-Pro-[Gly~Val]-Val-Gly-Glu-Gln-(Gly-Pro-Hyp)5-NH2 (peptide)
peptide: not shown
modifications: N-terminal hexanoic acid (C6); Hyp (4-hydroxyproline) at 3, 6, 9, 12, 15, 27, 30, 33, 36, 39 (written P in letters); Gly19-Val20 peptide bond replaced by phosphinate psi{PO2H-CH2}; hypothesised phosphino Gly-(L)Val analog; C-terminal amide
notes: One of two RP-HPLC-separated diastereomers of the C6-lipidated peptide; Triple helix of three identical strands by self-assembly; also called Peptide-amphiphile 2; peptide-amphiphile mimic
